From patent US20180228802A1

Assays:
PD-1 [1] = assay: competition binding, 2nd experiment; rank among the clones; competitor not given
PD-1 [2] = assay: FACS; rank of the clone among the humanized BAP049 clones; cells and conditions not described in this filing
PD-1 [3] = assay: competition binding, 1st experiment; rank among the clones; competitor not given

Chain of PD-1 (chain, as listed by the source limits assumed): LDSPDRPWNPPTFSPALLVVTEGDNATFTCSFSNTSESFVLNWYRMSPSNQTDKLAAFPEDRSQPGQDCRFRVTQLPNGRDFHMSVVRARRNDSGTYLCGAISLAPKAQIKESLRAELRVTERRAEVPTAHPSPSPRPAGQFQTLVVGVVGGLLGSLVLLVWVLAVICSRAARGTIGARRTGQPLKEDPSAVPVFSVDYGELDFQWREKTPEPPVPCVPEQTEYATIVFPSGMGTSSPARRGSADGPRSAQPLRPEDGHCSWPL

Competition Binding, 2nd exp. (ranking) (PD-1 [1])	Ranking, FACS data (PD-1 [2])	Competition Binding, 1st exp. (ranking) (PD-1 [3])	Binder
2	2	7	Clone No. 1 (antibody, human IgG4 S228P, kappa, V domains shown) VH: EVQLVQSGAEVKKPGESLRISCKGSGYTFTTYWMHWVRQATGQGLEWMGNIYPGTGGSNFDEKFKNRVTITADKSTSTAYMELSSLRSEDTAVYYCTRWTTGTGAYWGQGTTVTVSS VL: EIVLTQSPATLSLSPGERATLSCKSSQSLLDSGNQKNFLTWYQQKPGQAPRLLIYWASTRESGVPSRFSGSGSGTEFTLTISSLQPDDFATYYCQNDYSYPYTFGQGTKVEIKR
15	14	15	Clone No. 4 (antibody, human IgG4 S228P, kappa, V domains shown) VH: EVQLVQSGAEVKKPGESLRISCKGSGYTFTTYWMHWIRQSPSRGLEWLGNIYPGTGGSNFDEKFKNRFTISRDNSKNTLYLQMNSLRAEDTAVYYCTRWTTGTGAYWGQGTTVTVSS VL: EIVLTQSPATLSLSPGERATLSCKSSQSLLDSGNQKNFLTWYQQKPGKAPKLLIYWASTRESGVPSRFSGSGSGTDFTFTISSLQPEDIATYYCQNDYSYPYTFGQGTKVEIKR
16	3	8	Clone No. 12 (antibody, human IgG4 S228P, kappa, V domains shown) VH: EVQLVQSGAEVKKPGESLRISCKGSGYTFTTYWMHWVRQATGQGLEWMGNIYPGTGGSNFDEKFKNRVTITADKSTSTAYMELSSLRSEDTAVYYCTRWTTGTGAYWGQGTTVTVSS VL: DIQMTQSPSSLSASVGDRVTITCKSSQSLLDSGNQKNFLTWYLQKPGQSPQLLIYWASTRESGVPSRFSGSGSGTDFTFTISSLEAEDAATYYCQNDYSYPYTFGQGTKVEIKR
2	6	3	Clone No. 2 (antibody, human IgG4 S228P, kappa, V domains shown) VH: EVQLVQSGAEVKKPGESLRISCKGSGYTFTTYWMHWVRQATGQGLEWMGNIYPGTGGSNFDEKFKNRVTITADKSTSTAYMELSSLRSEDTAVYYCTRWTTGTGAYWGQGTTVTVSS VL: DIQMTQSPSSLSASVGDRVTITCKSSQSLLDSGNQKNFLTWYQQKPGQAPRLLIYWASTRESGIPPRFSGSGYGTDFTLTINNIESEDAAYYFCQNDYSYPYTFGQGTKVEIKR
> 4	5	5	Clone No. 5 (antibody, human IgG4 S228P, kappa, V domains shown) VH: EVQLVQSGAEVKKPGESLRISCKGSGYTFTTYWMHWVRQATGQGLEWMGNIYPGTGGSNFDEKFKNRVTITADKSTSTAYMELSSLRSEDTAVYYCTRWTTGTGAYWGQGTTVTVSS VL: EIVLTQSPATLSLSPGERATLSCKSSQSLLDSGNQKNFLTWYQQKPGKAPKLLIYWASTRESGVPSRFSGSGSGTDFTFTISSLQPEDIATYYCQNDYSYPYTFGQGTKVEIKR
15	15	16	Clone No. 16 (antibody, human IgG4 S228P, kappa, V domains shown) VH: EVQLVQSGAEVKKPGESLRISCKGSGYTFTTYWMHWVRQAPGQGLEWMGNIYPGTGGSNFDEKFKNRFTISRDNSKNTLYLQMNSLRAEDTAVYYCTRWTTGTGAYWGQGTTVTVSS VL: EIVLTQSPDFQSVTPKEKVTITCKSSQSLLDSGNQKNFLTWYQQKPGQAPRLLIYWASTRESGVPSRFSGSGSGTDFTFTISSLEAEDAATYYCQNDYSYPYTFGQGTKVEIKR
14	7	8	Clone No. 3 (antibody, human IgG4 S228P, kappa, V domains shown) VH: EVQLVQSGAEVKKPGESLRISCKGSGYTFTTYWMHWIRQSPSRGLEWLGNIYPGTGGSNFDEKFKNRFTISRDNSKNTLYLQMNSLRAEDTAVYYCTRWTTGTGAYWGQGTTVTVSS VL: DIQMTQSPSSLSASVGDRVTITCKSSQSLLDSGNQKNFLTWYQQKPGQAPRLLIYWASTRESGIPPRFSGSGYGTDFTLTINNIESEDAAYYFCQNDYSYPYTFGQGTKVEIKR
